No end group written: not given here.
Key:
[1] = target: T1, human GPR75 (372-540 aa region), His-tagged (human, UniProt O95800 372-540); assay: SPR (Nicoya OpenSPR), His-tagged GPR75 on NTA sensor, one-to-one fit; curve at 123.23 µM
T1 construct: range 372-540; also called G-Protein Receptor 75; not shown: His tag

[2] = target: T1, human GPR75 (372-540 aa region), …; assay: SPR (Nicoya OpenSPR), His-tagged GPR75 on NTA sensor, one-to-one fit; second curve at 12.3 µM
[3] = target: T1, human GPR75 (372-540 aa region), …; assay: SPR (Nicoya OpenSPR), His-tagged GPR75 on NTA sensor, one-to-one fit; second curve at 49.3 µM
[4] = target: T1, human GPR75 (372-540 aa region), …; assay: SPR (Nicoya OpenSPR), His-tagged GPR75 on NTA sensor, one-to-one fit; curve at 92.4 µM
[5] = target: T1, human GPR75 (372-540 aa region), …; assay: SPR (Nicoya OpenSPR), His-tagged GPR75 on NTA sensor, one-to-one fit; curve at 4.93 µM
[6] = target: T1, human GPR75 (372-540 aa region), …; assay: SPR (Nicoya OpenSPR), His-tagged GPR75 on NTA sensor, one-to-one fit; curve at 12.3 µM
[7] = target: T1, human GPR75 (372-540 aa region), …; assay: SPR (Nicoya OpenSPR), His-tagged GPR75 on NTA sensor, one-to-one fit; curve at 4.9 µM
[8] = target: T1, human GPR75 (372-540 aa region), …; assay: SPR (Nicoya OpenSPR), His-tagged GPR75 on NTA sensor, one-to-one fit; curve at 49.3 µM
[9] = target: T1, human GPR75 (372-540 aa region), …; assay: SPR (Nicoya OpenSPR), His-tagged GPR75 on NTA sensor, one-to-one fit; curve at 24.65 µM

T1 sequence (O95800 372-540 limits assumed): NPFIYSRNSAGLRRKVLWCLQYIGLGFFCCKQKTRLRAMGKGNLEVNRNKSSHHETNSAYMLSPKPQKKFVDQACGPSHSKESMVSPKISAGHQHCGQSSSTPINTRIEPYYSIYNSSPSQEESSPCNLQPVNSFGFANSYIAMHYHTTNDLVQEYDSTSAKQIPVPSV

- koff [1]: 0.0141 s⁻¹
- koff [2]: 0.0141 s⁻¹
- koff [3]: 0.0141 s⁻¹
- koff [4]: 0.0141 s⁻¹
- koff [5]: 0.0141 s⁻¹
- koff [6]: 0.0141 s⁻¹
- koff [7]: 0.0141 s⁻¹
- koff [8]: 0.0141 s⁻¹
- koff [9]: 0.0141 s⁻¹
B1: SU75-37 (peptide)
peptide: TFTSDLSKYLEEEVREFIWLKNGGPSDVNTDRPGLLDLK-NH2
notes: Synthetic, non-naturally occurring peptide; also called Drug37; SUODN37
